# Laboratory results from patent US20260061042A1, “POLYNUCLEOTIDE COMPOSITIONS AND USES THEREOF” (Pfizer Inc., priority 2024, published 2026).
# B1: BMD576_PapG-DSF K172A_DAF-GPI: monovalent PapG modRNA LNP; RNA construct SEQ ID NO: 64 (nucleic acid)
# chain: AGGAGGACUGGUCGAACCUGCAUAGUGAUCAUAAGGUCAGCAUAGCCACCAUGGAGACCGACACCCUCCUGCUGUGGGUGCUGUUACUGUGGGUGCCCGGUAGCACCGGCUGGAACAACAUCGUGUUCUACAGCCUGGGCAACGUGAACAGCUACCAAGGCGGCAACGUGGUGAUCACACAGAGACCUCAGUUCAUCACAAGCUGGAGACCCGGCAUCGCCACCGUGACCUGGAAUCAGUGCAACGGCCCCGAGUUCGCCGACGGCAGCUGGGCCUACUACAGAGAGUACAUCGCCUGGGUGGUGUUCCCCAAGAAGGUGAUGACCAAGAACGGCUACCCCCUGUUCAUCGAGGUGCACAACAAGGGCAGCUGGAGCGAGGAGAACACCGGCGACAGCGACAGCUACUUCUUCCUGAAGGGCUACAAGUGGGACGAGAGAGCCUUCGACGCCGGCAACCUGUGUCAGAAGCCGGGGGAGACGACCCGGCUUACAGAAAAGUUCAACGACAUCAUCUUCAAGGUGGCCCUGCCCGCCGACCUGCCCCUGGGCGACUACAGCGUGACCAUCCCCUACACAAGCGGCAUUCAGAGACACUUCGCUAGCUACCUGGGCGCUAGAUUCGCCAUCCCCUACAACGUGGCCAAGACCCUGCCUAGAGAGAACGAGAUGCUGUUCCUGUUCAAGAACAUCGGCGGCUGCAGACCUAGCGCUCAGAGCCUGGAGAUCAAGCACGGCGACCUGAGCAUCAACAGCGCCAACAACCACUACGCCGCUCAGACCCUGAGCGUGAGCUGCGACGUGCCCGCCAACAUCAGAUUCAUGCUGCUGAGAUCAACCACCCCCACCUACAGCCACGGCAAGAAGUUCAGCGUGGGCCUGGGCCACGGCUGGGACAGCAUCGUGAGCGUGAACGGCGUGGACACGGGCGAGACCACUAUGCGUUGGUACAAGGCCGGCACACAGAGCCUGACCAUCGGCAGCAGACUGUACGGCGAGAGCAGCAAGAUUCAACCGGGCGUGCUUAGUGGUUCCGCCACCCUGCUGAUGAUUCUGCCCGGCGGAAGCAGCGGCGGCGCCGACGUGCAGAUCAACAUCAGAGGCAACGUGUACAUACCCCCUUCGAGCGGAGGCGGCGGAUCGUCCGGCUCCGGGAGCAGCAGCGGCACCACACGGCUGCUGAGCGGCCACACCUGCUUCACCCUGACCGGCCUGCUGGGCACCCUGGUGACCAUGGGCCUGCUGACCUGAUGAGCUCGCUUUCUUGCUGUCCAAUUUCUAUUAAAGGUUCCUUUGUUCCCUAAGUCCAACUACUAAACUGGGGGAUAUUAUGAAGGGCCUUGAGCAUCUGGAUUCUGCCUAAUAAAAAACAUUUAUUUUCAUUGCAAAAAAAAAAAAAAAAAAAAAAAAAAAAAAAAAAAAAAAAAAAAAAAAAAAAAAAAAAAAAAAAAAAAAAAAAAAAAAAAAA
# modifications: modRNA in LNP
# B2: BMD562_PapG-DSF K172A_DAF-GPI: monovalent PapG modRNA LNP; RNA construct SEQ ID NO: 63 (nucleic acid)
# chain: AGGAAAUAAGAGAAAGAGGAUAAGACGACUAAGGAGACAUACAGAAUAAGAGGCAGCCACCAUGGAGACCGACACCCUCCUGCUGUGGGUGCUGUUACUGUGGGUGCCCGGUAGCACCGGCUGGAACAACAUCGUGUUCUACAGCCUGGGCAACGUGAACAGCUACCAAGGCGGCAACGUGGUGAUCACACAGAGACCUCAGUUCAUCACAAGCUGGAGACCCGGCAUCGCCACCGUGACCUGGAAUCAGUGCAACGGCCCCGAGUUCGCCGACGGCAGCUGGGCCUACUACAGAGAGUACAUCGCCUGGGUGGUGUUCCCCAAGAAGGUGAUGACCAAGAACGGCUACCCCCUGUUCAUCGAGGUGCACAACAAGGGCAGCUGGAGCGAGGAGAACACCGGCGACAGCGACAGCUACUUCUUCCUGAAGGGCUACAAGUGGGACGAGAGAGCCUUCGACGCCGGCAACCUGUGUCAGAAGCCGGGGGAGACGACCCGGCUUACAGAAAAGUUCAACGACAUCAUCUUCAAGGUGGCCCUGCCCGCCGACCUGCCCCUGGGCGACUACAGCGUGACCAUCCCCUACACAAGCGGCAUUCAGAGACACUUCGCUAGCUACCUGGGCGCUAGAUUCGCCAUCCCCUACAACGUGGCCAAGACCCUGCCUAGAGAGAACGAGAUGCUGUUCCUGUUCAAGAACAUCGGCGGCUGCAGACCUAGCGCUCAGAGCCUGGAGAUCAAGCACGGCGACCUGAGCAUCAACAGCGCCAACAACCACUACGCCGCUCAGACCCUGAGCGUGAGCUGCGACGUGCCCGCCAACAUCAGAUUCAUGCUGCUGAGAUCAACCACCCCCACCUACAGCCACGGCAAGAAGUUCAGCGUGGGCCUGGGCCACGGCUGGGACAGCAUCGUGAGCGUGAACGGCGUGGACACGGGCGAGACCACUAUGCGUUGGUACAAGGCCGGCACACAGAGCCUGACCAUCGGCAGCAGACUGUACGGCGAGAGCAGCAAGAUUCAACCGGGCGUGCUUAGUGGUUCCGCCACCCUGCUGAUGAUUCUGCCCGGCGGAAGCAGCGGCGGCGCCGACGUGCAGAUCAACAUCAGAGGCAACGUGUACAUACCCCCUUCGAGCGGAGGCGGCGGAUCGUCCGGCUCCGGGAGCAGCAGCGGCACCACACGGCUGCUGAGCGGCCACACCUGCUUCACCCUGACCGGCCUGCUGGGCACCCUGGUGACCAUGGGCCUGCUGACCUGAUGAGCUCGCUUUCUUGCUGUCCAAUUUCUAUUAAAGGUUCCUUUGUUCCCUAAGUCCAACUACUAAACUGGGGGAUAUUAUGAAGGGCCUUGAGCAUCUGGAUUCUGCCUAAUAAAAAACAUUUAUUUUCAUUGCAAAAAAAAAAAAAAAAAAAAAAAAAAAAAAAAAAAAAAAAAAAAAAAAAAAAAAAAAAAAAAAAAAAAAAAAAAAAAAAAAA
# modifications: modRNA in LNP
# Tested on: E. coli strain CFT073 expressing the fimbrial adhesin PapG
# Test: PapG hemagglutination inhibition (HAI) assay on sera of mice immunized with PapG modRNA LNPs
# Assay type: in vivo
# Details: 50 μl IM; for Step Titer GMT (HAI): weeks 0, 4, bleed week 6, GMT of individual titers; for Step Titer Pool (HAI): weeks 0, 4, bleed week 6, serum pool
# From the text: Escherichia coli to the uroepithelium of human kidney. The PapG lectin binds to the globoside (GbO4) glycolipid, which is enriched in urinary tract tissue and consists of the tetrasacharide GalNAcβ1-3Galα1-4Galβ1-4Glc linked to ceramide. Here we present the use of a hemagglutination inhibition assay (HAI) to determine vaccine functional responses to protein subunit PapG or mRNA-expressed PapG antigens. In this assay the agglutination of human red blood cells (hRBCs) expressing GbO4 is caused by live E. coli CFT073 bacteria expressing PapG. The HAI assay measures the ability of PapG-elicited antibodies to prevent hRBC agglutination, exemplifying inhibition of the key bacterial adherence mechanism leading to clinical pyelonephritis. The assay was used to characterize the functional activity of PapG monoclonal antibodies (mAbs) raised against a PapG lectin domain subunit antigen. PapG HAI data from a mouse immunogenicity study are described that evaluated various 5 monovalent PapG modRNA LNPs and a PapG subunit comparator.
# In this mouse study immunogenicity of different PapG mRNA constructs were evaluated. […]
# iii. PapG Hemagglutination Inhibition Assay (HAI) 1. Preparation of Single Use Frozen E. coli CFT073 Banks Frozen bacterial stocks for use in the PapG HAI are stored at a concentration of ˜15 OD/mL. For stock preparation, take 6 ×100 μL of frozen parental strain CFT073 glycerol stock to seed six overnight cultures with ˜85 mL Luria's Broth (LB) each in 250 mL vented flasks. Flasks are shaken at 200 rpm and 37° C. overnight. On the same day, prepare 100 mL LB media with 30% glycerol and 0.4% sucrose by mixing […] 80% Glycerol with 0.8 mL 50% Sucrose in 64 mL LB and pre-chill at 4° C. After ˜16 h growth, determine the OD600 nm of each flask with the SpectraMax M5e plate reader by adding 100 μL culture to 900 μL LB (1:10 dilution). After reading the OD600, harvest cells by pelleting in a centrifuge at 4,000g, 4° C., for 30 minute. Determine the total OD of each of the six flasks, by multiplying the volume by OD/mL of each flask and divide by 15 OD to give the appropriate pellet resuspension volume. Discard supernatants and resuspend all pellets in the pre-chilled LB cryopreservant containing 30% glycerol and 0.4% sucrose, with a final volume as calculated above. Pool all resuspended pellets and mix gently, then aliquot into 1 mL/cryotube, and freeze at −70° C.
# 2. Preparing 10% hRBC Working Solution From Stock
# Gently mix human red blood cells (hRBC) bottle (Rockland) by rocking ˜20×times, pipet out 10 mL of the hRBCs into a 15 ml conical tube. Centrifuge at 2,000 rpm(˜990×g) for 10 minutes and 4° C. Aspirate and discard the supernatant, then resuspend the pellet with 9 mL 4° C. PBS. The packed hRBCs in 15 mL conical tube should constitute roughly 1 mL of this total volume. Store these 10% hRBCs at 4° C. until use. […]
# iv. PapG Hemagglutination Inhibition (HAI) Assay
# The PapG hemagglutination inhibition (HAI) assay uses human red blood cells (hRBCs), which naturally express the PapG ligand GbO4 (globotetraosyl ceramide) on the cell surface, and the E. coli strain CFT073 expressing the fimbrial adhesin PapG. Upon mixing bacteria with hRBCs, […] cells remain suspended (presenting as a cloudy well), while no binding results in the red blood cells falling out of solution towards the center of the well (observed as pellet).
# The total final well volume is 100 μL, with serum dilutions comprising 25 μL of this volume, strain CFT073 cells in […] volume, and hRBCs in a 50 μL volume. The assay plate is a V-bottom plate to which 25 μL 4° C. PBS is initially added to all wells. The positive control wells receive an additional 25 μL 4° C. PBS. The no-serum negative control consists of E. coli CFT073 cells plus hRBCs only (resulting agglutinated well appears cloudy). To accommodate pre-diluted sera transferred from the serum Master Dilution plate (MDP) an extra 5 μL 4° C. PBS is added to wells in Row A of the assay plate (columns 1 to 12). […]
Molecule,Step Titer GMT (HAI) (0.2 μg),Step Titer Pool (HAI) (0.2 μg),Step Titer GMT (HAI) (1 μg),Step Titer Pool (HAI) (1 μg),Step Titer GMT (HAI) (5 μg),Step Titer Pool (HAI) (5 μg)
B1,"50,054","54,000","69,595","27,000","141,214","81,000"
B2,–,–,"65,875","81,000",–,–
